Among the data in publication doi:10.1101/2025.02.06.636884 are KD of the first binding event (high affinity, endothermic), KD of the second binding event (lower affinity, exothermic) and N of the first binding event values, retold here.

The target of the assay is cytosolic fragment of the McpN chemoreceptor (Pseudomonas aeruginosa PAO1). The assay can be described thus: ITC.

On to CheV D238E (natural protein), for which the KD of the first binding event (high affinity, endothermic) was determined as 8 nM; the KD of the second binding event (lower affinity, exothermic) was 3 µM; the N of the first binding event was determined as 0.5.
